{"source": "paper PMC13544220", "about": "“Glycemic and bodyweight effects of GIPR coding variation reflect differences in surface expression and intrinsic functional impairment” (Science Advances, 2026);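 for AD293 Surface: scaled to the experimental average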;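 for Surface SNAP-GIPR expression: scaled to the experimental average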", "format_in_all_cases": "cell-based, human", "key": {"[1]": {"tested_on": "wild-type and variant SNAP-GIPR", "experiment": "Surface SNAP-GIPR expression (SNAP-tag labelling) in INS-1 cells", "conditions": "Fig 4G; Mean", "method_in_brief": "(§1)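 Surface GIPR is quantified from wide-field images after labelling intact transfected cells with a membrane-impermeant SNAP probe at 500 nM for 10 min at room temperature. Specific signal, corrected for nontransfected cells, is normalized to the experiment-wide average or to wild-type.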"}, "[2]": {"tested_on": "wild-type and variant SNAP-GIPR", "experiment": "Constitutive and agonist-mediated internalization, reversible SNAP-tag labelling, INS-1 cells", "parameters": "key to Internalisation, GIP-only / Internalisation, Vehicle / Internalisation, +GIP: % internalization: residual fluorescence after Mesna vs pre-Mesna", "conditions": "Mean", "method_in_brief": "(§2)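 % internalization = residual specific fluorescence after Mesna / pre-Mesna value. Imaging in TNE buffer pH 8.6; second image 10 min post-Mesna.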"}, "[3]": {"tested_on": "wild-type and variant SNAP-GIPR", "experiment": "Single-concentration GIP cAMP response by HTRF in INS-1 cells", "conditions": "Fig S3E, mean", "experimental": "(§3) All variants were tested in parallel on each occasion to control for transfection efficiency differences between experiments."}, "[4]": {"tested_on": "wild-type and variant SNAP-GIPR", "experiment": "Constitutive and agonist-mediated internalization, reversible SNAP-tag labelling, AD293 cells", "parameters": "key to Internalisation, Vehicle / Internalisation, +GIP / Internalisation, GIP-only: % internalization: residual fluorescence after Mesna vs pre-Mesna; Surface expression: unit not given here", "conditions": "Mean", "method_in_brief": "as §2"}, "[5]": {"tested_on": "wild-type and variant SNAP-GIPR", "experiment": "Single-concentration GIP cAMP response by HTRF in AD293 cells", "conditions": "Fig S3F, HTRF, mean", "experimental": "as §3"}, "[6]": {"tested_on": "wild-type and variant SNAP-GIPR", "experiment": "cADDis cAMP imaging in AD293 cells, ensemble, expression-matched and per decile", "conditions": "Fig S3F, cADDis, mean", "method_in_brief": "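Transient SNAP-GIPR plus cADDis BacMam in AD293; 24 h; SNAP-Surface AF647 500 nM, 10 min RT; wide-field 10X imaging at 37°C in KRBH/6 mM glucose/0.1% BSA. Cells failing IBMX/FSK response criteria excluded.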"}, "[7]": {"tested_on": "wild-type and variant SNAP-GIPR", "experiment": "Surface SNAP-GIPR expression (SNAP-tag labelling) in AD293 cells", "conditions": "for AD293 Surface: Fig S3E, mean; for Surface SNAP-GIPR expression: sheet Fig 1C", "method_in_brief": "as §1"}}}
{"molecule": "R217L (protein, UniProt P48546 22-466, looked up, variant R217L) Gastric inhibitory …: RAETGSKGQTAGELYQRWERYRRECQETLAAAEPPSGLACNGSFDMYVCWDYAAPNATARASCPWYLPWHHHVAAGFVLRQCGSDGQWGLWRDHTQCENPEKNEAFLDQRLILERLQVMYTVGYSLSLATLLLALLILSLFRRLHCTRNYIHINLFTSFMLRAAAILSRDRLLPRPGPYLGDQALALWNQALAACLTAQIVTQYCVGANYTWLLVEGVYLHSLLVLVGGSEEGHFRYYLLLGWGAPALFVIPWVIVRYLYENTQCWERNEVKAIWWIIRTPILMTILINFLIFIRILGILLSKLRTRQMRCRDYRLRLARSTLTLVPLLGVHEVVFAPVTEEQARGALRFAKLGFEIFLSSFQGFLVSVLYCFINKEVQSEIRRGWHHCRLRRSLGEEQRQLPERAFRALPSGSGPGEVPTSRGLSSGTLPGPGNEASRELESYC", "values": [{"measurement": "Surface expression", "setting": "[1]", "result": 0.4654}, {"measurement": "+GIP internalisation (100 nM)", "setting": "[2]; Fig 4G, GIP 100 nM", "result": 0.2239}, {"measurement": "GIP-specific internalisation (100 nM)", "setting": "[2]; Fig 4G, GIP 100 nM", "result": 0.03772}, {"measurement": "Constitutive internalisation (100 nM)", "setting": "[2]; Fig 4G", "result": 0.1862}, {"measurement": "Internalisation, +GIP", "setting": "[2]; Fig S4C, INS-1", "result": 51.715}, {"measurement": "Internalisation, GIP-only", "setting": "[2]; Fig S4C, INS-1", "result": 8.862}, {"measurement": "Internalisation, Vehicle", "setting": "[2]; Fig S4C, INS-1", "result": 42.8533}, {"measurement": "INS-1 cAMP (100 nM)", "setting": "[3]", "result": 1.196}, {"measurement": "+GIP internalisation (100 nM)", "setting": "[4]; Fig 4E, GIP 100 nM", "result": 0.224}, {"measurement": "GIP-specific internalisation (100 nM)", "setting": "[4]; Fig 4E, GIP 100 nM", "result": 0.04046}, {"measurement": "Constitutive internalisation (100 nM)", "setting": "[4]; Fig 4E", "result": 0.1836}, {"measurement": "Surface expression", "setting": "[4]; Fig 4E", "result": 0.4265}, {"measurement": "Internalisation, +GIP", "setting": "[4]; Fig S4C, AD293", "result": 55.082}, {"measurement": "Internalisation, GIP-only", "setting": "[4]; Fig S4C, AD293", "result": 10.4684}, {"measurement": "Internalisation, Vehicle", "setting": "[4]; Fig S4C, AD293", "result": 44.6136}, {"measurement": "AD293 100 pM HTRF", "setting": "[5]; AD293, 100 pM", "result": 0.09215}, {"measurement": "AD293 100 nM HTRF", "setting": "[5]; AD293, 100 nM", "result": 1.142}, {"measurement": "AD293 100 pM cADDis", "setting": "[6]; AD293, 100 pM", "result": 17.6282}, {"measurement": "AD293 100 nM cADDis", "setting": "[6]; AD293, 100 nM", "result": 34.7}, {"measurement": "AD293 Surface", "setting": "[7]; column repeated, paired with cAMP 100 nM", "result": 0.4259}, {"measurement": "AD293 Surface", "setting": "[7]; paired with cAMP 100 pM", "result": 0.4259}, {"measurement": "Surface SNAP-GIPR expression", "setting": "[7]; replicate 1", "result": 0.4201}, {"measurement": "Surface SNAP-GIPR expression", "setting": "[7]; replicate 2", "result": 0.7236}, {"measurement": "Surface SNAP-GIPR expression", "setting": "[7]; replicate 3", "result": 0.824}, {"measurement": "Surface SNAP-GIPR expression", "setting": "[7]; replicate 4", "result": 0.3234}, {"measurement": "Surface SNAP-GIPR expression", "setting": "[7]; replicate 5", "result": 0.3781}, {"measurement": "Surface SNAP-GIPR expression", "setting": "[7]; replicate 6", "result": 0.5304}, {"measurement": "Surface SNAP-GIPR expression", "setting": "[7]; replicate 7", "result": 0.6162}, {"measurement": "Surface SNAP-GIPR expression", "setting": "[7]; replicate 8", "result": 0.6634}, {"measurement": "Surface SNAP-GIPR expression", "setting": "[7]; replicate 9", "result": 0.3807}, {"measurement": "Surface SNAP-GIPR expression", "setting": "[7]; replicate 10", "result": 0.4129}, {"measurement": "Surface SNAP-GIPR expression", "setting": "[7]; replicate 11", "result": 0.358}, {"measurement": "Surface SNAP-GIPR expression", "setting": "[7]; replicate 12", "result": 0.3678}, {"measurement": "Surface SNAP-GIPR expression", "setting": "[7]; replicate 13", "result": 0.04028}, {"measurement": "Surface SNAP-GIPR expression", "setting": "[7]; replicate 14", "result": 0.3517}, {"measurement": "Surface SNAP-GIPR expression", "setting": "[7]; replicate 15", "result": 0.3652}, {"measurement": "Surface SNAP-GIPR expression", "setting": "[7]; replicate 16", "result": 0.3999}, {"measurement": "Surface SNAP-GIPR expression", "setting": "[7]; replicate 17", "result": 0.3288}, {"measurement": "Surface SNAP-GIPR expression", "setting": "[7]; replicate 18", "result": 0.3912}, {"measurement": "Surface SNAP-GIPR expression", "setting": "[7]; replicate 19", "result": 0.3034}, {"measurement": "Surface SNAP-GIPR expression", "setting": "[7]; replicate 20", "result": 0.3764}, {"measurement": "Surface SNAP-GIPR expression", "setting": "[7]; replicate 21", "result": 0.4615}, {"measurement": "Surface SNAP-GIPR expression", "setting": "[7]; replicate 22", "result": 0.364}, {"measurement": "Surface SNAP-GIPR expression", "setting": "[7]; replicate 23", "result": 0.3963}, {"measurement": "Surface SNAP-GIPR expression", "setting": "[7]; replicate 24", "result": 0.3543}, {"measurement": "Surface SNAP-GIPR expression", "setting": "[7]; replicate 25", "result": 0.4738}, {"measurement": "Surface SNAP-GIPR expression", "setting": "[7]; replicate 26", "result": 0.4835}, {"measurement": "Surface SNAP-GIPR expression", "setting": "[7]; replicate 27", "result": 0.4338}, {"measurement": "Surface SNAP-GIPR expression", "setting": "[7]; replicate 28", "result": 0.5117}, {"measurement": "Surface SNAP-GIPR expression", "setting": "[7]; replicate 29", "result": 0.4222}, {"measurement": "Surface SNAP-GIPR expression", "setting": "[7]; replicate 30", "result": 0.4733}, {"measurement": "Surface SNAP-GIPR expression", "setting": "[7]; replicate 31", "result": 0.4841}, {"measurement": "Surface SNAP-GIPR expression", "setting": "[7]; replicate 32", "result": 0.4011}, {"measurement": "Surface SNAP-GIPR expression", "setting": "[7]; replicate 33", "result": 0.4465}, {"measurement": "Surface SNAP-GIPR expression", "setting": "[7]; replicate 34", "result": 0.4033}, {"measurement": "Surface SNAP-GIPR expression", "setting": "[7]; replicate 35", "result": 0.2194}, {"measurement": "Surface SNAP-GIPR expression", "setting": "[7]; replicate 36", "result": 0.2502}, {"measurement": "Surface SNAP-GIPR expression", "setting": "[7]; replicate 37", "result": 0.3794}, {"measurement": "Surface SNAP-GIPR expression", "setting": "[7]; replicate 38", "result": 0.4678}, {"measurement": "Surface SNAP-GIPR expression", "setting": "[7]; replicate 39", "result": 0.4904}, {"measurement": "Surface SNAP-GIPR expression", "setting": "[7]; replicate 40", "result": 0.4789}, {"measurement": "Surface SNAP-GIPR expression", "setting": "[7]; replicate 41", "result": 0.5101}]}
